Drawing on PMC6076269, “Structure and nucleic acid binding properties of KOW domains 4 and 6–7 of human transcription elongation factor DSIF”, this text covers Kd for five molecules.

For this series, the target named is hSpt5 KOW4 (S522-G647) (Homo sapiens, UniProt O00267 522-647). Put plainly: fluorescence anisotropy; 50 nM nucleic acid; Fluorescence anisotropy: 25 mM Tris/HCl pH 7.0, 50 mM NaCl, 25 C (buffer printed for duplex annealing, named fluorescence buffer); NMR with Rpb4/7 (Fig 7): 50 mM Na phosphate pH 7.0, 50 mM NaCl, 1 mM DTT, 298 K. As to conditions: protein: recombinant, tags: His6-GB1 removed by TEV.

Setting [1] is: label: 5' 6-FAM on strand 1, blunt.

The term Kd denotes a measure of binding affinity in units of concentration.

B1: dsDNA2 (dsDNA)
DNA 1: GAAAATTGGGTAAG
DNA 2: CTTACCCAATTTTC
For B1, the Kd under setting [1] was determined as 41.2 ± 9 µM.

As for GAAAATTGGGTAAG (ssDNA) [ssDNA2], where the note is “label: 5' 6-FAM”, the dissociation constant Kd worked out at 24.5 ± 3.2 µM.

B2: dsDNA1 (dsDNA)
DNA 1: CTTATTGAATTA
DNA 2: TAATTCAATAAG
B2: the Kd under setting [1] came out at 20.1 ± 0.4 µM.

As to CTTATTGAATTA (ssDNA) [ssDNA1], the Kd (label: 5' 6-FAM) worked out at 12.2 ± 0.6 µM.

Take GGCGGUAGCGUG (ssRNA) [ssRNA]: the Kd (label: 5' 6-FAM) came to 39.5 ± 7.4 µM.
